Assay: yeast display, Sf9 membrane polyspecificity reagent, FACS + sequencing; frameworks hold sequencing errors
Summary of the method: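 A synthetic nanobody library was expressed on Saccharomyces cerevisiae BJ5465 by galactose induction for 36–48 hours. The library was stained for 1 hour at 4 °C with 10% biotinylated, detergent-solubilized Sf9 membrane reagent and enriched with streptavidin microbeads before FACS. Low and high (top ~1%) gates were set on anti-HA fluorescence for expression and streptavidin fluorescence for reagent binding, and each polyreactivity label reflects the gate of origin.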

Row | Sequence | polyreactivity (PSR sort gate)
1 | QVQLVESGGGLVQAGGSLRLSCAASGFIFGHNTMGWYRQAPGKERELVARITSSGGGTNYADSVKGRFTISRDNAKNTVYLQMNSLKPEDTAVYYCAAELLYWGYYDYDYWGQGTQVTVSS | high polyreactivity
2 | QVQLVESGGGLVQAGGSLRLSCAASGFIFGHYAMGWYRPAPGKERELVAGINSSGGSTHYADSVKGRFTISRDNAKNTVYLQMNSLKPEDTAVYYCAADVYRYYAGSRYYYWGQGTQVTVSS | low polyreactivity
3 | QVQLVESGGGLVQAGGSLRLSCAASGFIFGINAMGWSRQAPGKERELVAAISRSGGRTYYADSVKGRCTISRDNAKNTVYLQMNSLKPEDTAVYYCAADKASYTNYDGDSWGQGTQVTVSS | high polyreactivity
4 | QVQLVESGGGLVQAGGSLRLSCAASGFIFGINAMGWYRQAPGKERELVATITSGGGTNYADSVKGRFTISRDNAKNTVYLQMNSLKPEDTAVYYCAAEEDYIYFYVSMDYWGQGTQVTVSS | low polyreactivity
5 | QVQLVESGGGLVQAGGSLRLSCAASGFIFGIYAMGWYRQAPGKEREFVAAMTGSAGSTYYADSVKGRFTISRDNAKNTVYLQMNSLKPEDTAVYYCAAVLRTHRYGGYNYWGQGTQVTVSS | low polyreactivity
6 | QVQLVESGGGLVQAGGSLRLSCAASGFIFGIYAMGWYRQAPGKERELVAAISWRGDSTYYADSVKGRFTISRDNAKNTVYLQMNSLKPEDTAVYYCAAVYYKLVGWYSYRYGYWGQGTQVTVSS | low polyreactivity
7 | QVQLVESGGGLVQAGGSLRLSCAASGFIFGLNAMGWYRPAPGKERELVAAIRSASSTNYADSVKGRFTISRDNAKNTVYLQMNSVKPEDTAVYYCAAEYVTYQQGFWGYDYWGQGTEVTVSS | low polyreactivity
8 | QVQLVESGGGLVQAGGSLRLSCAASGFIFGPNAMGWYIQAPGKERELVAAITWSSGRTYYADSVKGRFTISRDNAKNTVYLQMNSLKPEDTAVYYCAADFSRAVLRGNYWGQGTQVTVSS | high polyreactivity
9 | QVQLVESGGGLVQAGGSLRLSCAASGFIFGPYAMGWYRQAPGKERELVASISWSGGRTYYADSVKGRFTISRDNAKNTVYLQMNSLKPEDTAVYYCAADLPVIRGYRSNRFGYWGQGTQVTVSS | high polyreactivity
10 | QVQLVESGGGLVQAGGSLRLSCAASGFIFGQYAMGWSRQAPGKERELVAAISESGGRTYYADSVKGRFTISRDNAKNTVYLQMNSLKPEDTAVYYCAADKSKYRAFDYWGQGTQVTVSS | high polyreactivity
11 | QVQLVESGGGLVQAGGSLRLSCAASGFIFGQYAMGWSRQAPGKERELVAAISSVGTTNYADSVKGRFTISRDNAKNTVYLQMNSLKPEDTAVYYCNAPVFYYWDYSYFPYEVDYWGQGTQVTVSS | low polyreactivity
12 | QVQLVESGGGLVQAGGSLRLSCAASGFIFGRNAMGWYRQAPGKERELVAGISSRGGRTYYADSVKGRFTISRDNAKNTVYLQMNSLKPEDTAVYYCAAAGLTDYVRYDYWGQGTQVTVSS | high polyreactivity
13 | QVQLVESGGGLVQAGGSLRLSCAASGFIFGRYAMGWYRQAPGKERELVAAISKTGGRTYYADSVKGRFTISRDNAKNTVYLQMNSLKPEDTAVYYCAAVYKRGMDYWGQGTEVTVSS | high polyreactivity
14 | QVQLVESGGGLVQAGGSLRLSCAASGFIFGRYAMGWYRQAPGKERELVAAISRSGGSTHYADSVKGRFTISRDNAKNTVYLQMISLKPEDTAVYYCAAVWPFDRSRMDYWGQGTQVTVSS | high polyreactivity
15 | QVQLVESGGGLVQAGGSLRLSCAASGFIFGSNAMGWYRQAPGKERELVAAISRSGGSTYYADSVKGRFTISRDNAKNTVYLQMNSLKPEDTAVYYCNVDLWPFVYSWWSYDYWGQGTQVTVSS | high polyreactivity
16 | QVQLVESGGGLVQAGGSLRLSCAASGFIFGSNAMGWYRQAPGKERELVAAISRSGGSTYYADSVKGRFTISRDNAKNTVYLQMNSLKPEDTAVYYCNVVLWPFVYSWWSYDYWGQGTQVTVSS | high polyreactivity
17 | QVQLVESGGGLVQAGGSLRLSCAASGFIFGSYAMGWYRQAPGKERELVAAISYRGGTTYYADSVKGRFTISRDNAKNTVYLQMNSLKPEDTAVYYCAADSPENRYNYWGQGTQVTLSS | high polyreactivity
18 | QVQLVESGGGLVQAGGSLRLSCAASGFIFGTNAMGWYRQAPGKERELVAAITSRGGSTYYADSVKGRFTISRDNAKNTVYLQMNSLKPEDTAVYYCAADKPRSYYYWGQGTQVTVSS | high polyreactivity
19 | QVQLVESGGGLVQAGGSLRLSCAASGFIFGTYAMGWYRPAPGKERELVAAITSGGSTYYADSVKGRFTISRDNAKNTVYLQMNSLKPEDTAVYYCAKYHWRLSFSRYPYDYWGQGTQVTVSS | high polyreactivity
20 | QVQLVESGGGLVQAGGSLRLSCAASGFIFGTYAMGWYRQAPGKEREFVAAINWGGGRTYYADSVKGRFTISRDNAKNTVYLQMNSLKPEDTAVYYCNKRLIYYRGTYYSRRFDYWGQGTQVTVSS | high polyreactivity
21 | QVQLVESGGGLVQAGGSLRLSCAASGFIFGVNAMGWYRQAPGKERELVAAITSTGGRTYYADSVKGRFTISRDNAKNTVYLQMNSLKPEDTAVYYCNKRYRDQYGYDYWGQGTQVTVSS | high polyreactivity
